Measurements taken from patent US20200377597A1 (SUNSHINE GUOJIAN PHARMACEUTICAL SHANGHAI CO LT, published 2020).
Changes are numbered by the printed parent chain.

T1: ICOS-hFc (UniProt Q9Y6W8 21-141)
T1 construct: Bought reagent; construct not described; not shown: hFc of a bought product
T1 sequence (looked up): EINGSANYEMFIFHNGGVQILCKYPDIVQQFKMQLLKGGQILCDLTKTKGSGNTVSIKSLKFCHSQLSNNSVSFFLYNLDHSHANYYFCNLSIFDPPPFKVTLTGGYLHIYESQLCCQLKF

B1: mAb1-15-Humanized (antibody, human IgG4 S228P, kappa, V domains shown)
VH: EVQLVESGGGLVQPGGSLRLSCAASGFTFSSYDMSWVRQAPGKRLEWVATISGGGRYTYYPDSVKGRFTISRDNAKNSLYLQMNSLRAEDTAVYYCANRYDVDWFAYWGQGTLVTVSS
VL: EIVLTQSPATLSLSPGERATLSCRASQSISNNLHWYQQKPGQAPRLLIKYASQSISGIPARFSGSGSGTDFTLTISSLEPEDFAVYFCQQSNSWPLTFGQGTKVEIKR
notes: Human IgG4/Kappa, expressed in HEK293, purified on Protein A; also called humanized antibody No. 1-15
B2: mAb1-25-Chimeric (antibody, human IgG4 S228P, kappa, V domains shown)
VH: EVKLVESGGDLVKPGGSLKLSCVASGFAFSSYDMSWVRQTPEKRLEWVATISGGGRYTYYPDTVKGRFTISRDNARNTHYLQMSSLRSEDTALYFCASPYGGYFDVWGAGTTVTVSS
VL: DIVLTQSPATLSVTPGARVSLSCRASQSISNFLHWYQQKSHESPRLLIKYASQSISGIPSRFSGSGSGTDFTLSISSVETEDFGMYFCQQSNSWPHTFGAGTKLELKR
notes: Murine variable regions spliced to human IgG4 and Kappa constant regions; expressed in HEK293; also called chimeric antibody of murine antibody No. 1-25
B3: mAb1-15-Chimeric (antibody, human IgG4 S228P, kappa, V domains shown)
VH: B1 VH with Q3N, Q13K, R19K, A40T, G42E, S78N, N84S, A88S, V93L, S118A
VL: B2 VL with A17D, R18S, F32N, S76N, H96L, K107N
notes: Murine variable regions spliced to human IgG4 and Kappa constant regions; expressed in HEK293; also called chimeric antibody of murine antibody No. 1-15
B4: mAb1-25-Humanized (antibody, human IgG4 S228P, kappa, V domains shown)
VH: EVKLVESGGGLVQPGGSLRLSCAASGFAFSSYDMSWVRQAPGKRLEWVATISGGGRYTYYPDTVKGRFTISRDNAKNSHYLQMNSLRAEDTAVYFCASPYGGYFDVWGQGTLVTVSS
VL: B1 VL with N32F, L96H
notes: Human IgG4/Kappa, expressed in HEK293E, purified on Protein A; also called humanized antibody No. 1-25

What was measured:
[1] = biological target: T2, human PD-1-hFc (human, UniProt Q15116 25-170, biotin-labelled with EZ-Link Sulfo-NHS-Biotin in the second SPR method); experiment: SPR Biacore T200; biotinylated PD-1-hFc on SA chip, antibody as analyte
T2 construct: extracellular domain; also called PD-1-hFc antigen; PD-1-hFc fusion protein; not shown: Fc region of human IgG1
Protocol: The second determination method was as follows: PD-1-hFc in Example 1 was biotin-labelled using EZ-Link™ Sulfo-NHS-Biotin (Thermo Fisher Scientific), and the specific operation was carried out according to the instructions provided by the manufacturer. After labeling, the excess biotin labeling reagent was removed by dialysis; the aforementioned biotinylated PD-1-hFc fusion protein was immobilized on a chip using Sensor chip SA (GE healthcare). FC3 (Flow cell 3) was a reference channel, and FC4 (Flow cell 4) was a sample channel.

[2] = biological target: human PD-1 (human, UniProt Q15116 25-288); experiment: cell-based or functional assay
[3] = biological target: T3, monovalent human PD-1 (purchased from Sino Biological Inc.) (human, UniProt Q15116 25-167); experiment: SPR Biacore T200; antibody captured on Protein A/G, monovalent human PD-1 as analyte
T3 construct: Bought reagent
Source text: The first method was as follows: A CM5 sensor chip (GE healthcare) was activated by the Amine Coupling Kit (GE healthcare) and the Protein A/G fusion protein (Thermo Pierce) was immobilized on the chip with an amount of 2000 RU. FC3 (Flow cell 3) was a reference channel, and FC4 (Flow cell 4) was a sample channel.

[4] = biological target: T1, ICOS-hFc; experiment: ELISA, plate coated with ICOS-hFc at 2 ug/ml, detection with HRP goat anti-human Fab, OD450
Protocol: (§1) The protein molecules such as CD28, CTLA-4, and ICOS belong to the same family as PD-1, and the sequences have homology. […] Each well was added with 200 μl of coating solution containing 1% BSA, and blocked at room temperature for 4 hours, then patted dry, and stored in a refrigerator at -20° C. until use. […] 100 μl of HRP-labeled goat anti-human Fab antibody (purchased from Sigma) diluted 1:5000 with PBST was added and incubated at room temperature for 1 hour; washed 3 times with PBST and patted dry. 100 μl of chromogenic solution (ELISA chromogenic solution A and chromogenic solution B were mixed in a volume ratio of 1:1 before use) was added to each well, then 100 μl of 2M H₂SO₄ stop solution was added to each well to stop the reaction. The OD value of each well was immediately measured at a wavelength of 450 nm using a microplate reader (Molecular Device).

[5] = biological target: T4, CD28-hFc (UniProt P10747 19-152); experiment: ELISA, plate coated with CD28-hFc at 2 ug/ml, detection with HRP goat anti-human Fab, OD450
T4 construct: Bought reagent; construct not described; not shown: hFc of a bought product
Protocol: as §1

T2 sequence (Q15116 25-170): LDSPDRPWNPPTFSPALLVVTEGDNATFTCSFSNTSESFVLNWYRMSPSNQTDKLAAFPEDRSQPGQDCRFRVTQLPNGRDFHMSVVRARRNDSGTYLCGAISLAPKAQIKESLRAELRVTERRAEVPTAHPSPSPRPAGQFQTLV
Chain of human PD-1 (Q15116 25-288): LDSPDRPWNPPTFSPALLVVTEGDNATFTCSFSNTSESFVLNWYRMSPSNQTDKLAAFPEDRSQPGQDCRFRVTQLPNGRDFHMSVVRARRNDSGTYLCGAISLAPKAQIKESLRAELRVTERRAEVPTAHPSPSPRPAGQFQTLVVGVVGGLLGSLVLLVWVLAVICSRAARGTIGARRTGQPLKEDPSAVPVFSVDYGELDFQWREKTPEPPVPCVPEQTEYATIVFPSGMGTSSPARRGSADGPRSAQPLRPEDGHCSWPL
T3 sequence (Q15116 25-167 limits assumed): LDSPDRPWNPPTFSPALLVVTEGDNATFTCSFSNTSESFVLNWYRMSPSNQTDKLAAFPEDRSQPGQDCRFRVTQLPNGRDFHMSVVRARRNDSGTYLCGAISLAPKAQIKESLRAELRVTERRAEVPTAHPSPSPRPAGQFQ

Binder | Kd [1] [nM] | koff [1] [s⁻¹] | kon [1] [M⁻¹ s⁻¹] | Cell proliferation (FIG. 3), MLR EC50 [2] [µg/mL] | IFN-γ secretion (FIG. 2), MLR EC50 [2] [µg/mL] | IL-2 secretion (FIG. 1), MLR EC50 [2] [µg/mL] | Kd [3] [nM] | koff [3] [s⁻¹] | kon [3] [M⁻¹ s⁻¹] | binding result [4] | binding result [5]
B1 | 0.0408 | 3.12e-05 | 764000 | 0.0172 | 0.0557 | 0.0165 | 4.28 | 0.000117 | 27300 | – | –
B2 | – | – | – | 0.00669 | 0.0254 | 0.00995 | 0.231 | 4.14e-05 | 179000 | – | –
B3 | – | – | – | 0.0146 | 0.0284 | 0.0236 | 2.34 | 0.000148 | 62900 | – | –
B4 | – | – | – | – | – | – | – | – | – | no binding (tested: log 3.6 (about 4000 ng/ml)) | no binding (tested: log 3.6 (about 4000 ng/ml))
